In the supplement of paper PMC10567573:
± gives the standard deviation.

Assay: protein stability index of a GFP-peptide fusion (GPS, HEK-293T) (PSI 1-6); higher = more stable
[1] = treatment: DMSO, c terminus: a fixed tail appended
[2] = treatment: MLN4924 1 uM, 8 h, c terminus: a fixed tail appended
[3] = treatment: DMSO, c terminus: native
[4] = treatment: MLN4924 1 uM, 8 h, c terminus: native
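Note: 24-mer peptide tiles fused after GFP, lentivirally expressed, FACS-sorted into six equal bins by GFP/DsRed ratio, decoded by Illumina sequencing, PSI is the read-weighted mean bin number.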

Sequence | protein stability index [1] | protein stability index [2] | protein stability index [3] | protein stability index [4]
ALNFMKGCLKMNPDDRLTCSQLLE [CDKL4] | 2.32 ± 0.18 | 2.55 ± 0.38 | – | –
LCGPHAKAPYLCEATHEPAAARIR | 3.75 ± 0.2 | 3.61 ± 0.24 | – | –
NINDRIKELGTLIPKSSDPEMRWN [TFE3] | 3.58 ± 0.33 | 3.77 ± 0.17 | – | –
AGLGPGSRRPLDEAVAGAEGREAP [DENND6A] | 5.39 ± 0.23 | 5.04 ± 0.39 | – | –
WREFHYIQSKLGIVSLLLGTIHAL [STEAP1] | 2.96 ± 0.56 | 3.15 ± 0.69 | – | –
DRVGTIKSKVVGDRENGSDNLPSS [TPD52L2] | 5.17 ± 0.29 | 5.17 ± 0.18 | – | –
QYIISDLASARIIEQDAVVPSEWL [GMCL1] | 2.76 ± 0.24 | 2.76 ± 0.25 | – | –
GNMANLSLHDHDGSSGASDQDTLA [DVL3] | 5.42 ± 0.12 | 5.3 ± 0.41 | – | –
NLQCLYCEKTFRDKNTLKDHMRKK [ZNF277] | 3.29 ± 0.42 | 3.39 ± 0.66 | – | –
SASEEEDTKPKPTKRKRKGSSAVG [INTS3] | 5.23 ± 0.23 | 5.38 ± 0.16 | – | –
MNKSENLLFAGSSLASQVHAAAVN [INVS] | 3.11 ± 0.24 | 3.35 ± 0.34 | – | –
ELGQAVEVIYPQHSKLTDREKTNI [DENND6A] | 3.69 ± 0.35 | 4.28 ± 0.21 | – | –
RLQVVKLLAKMFGAKDSELASQNK [PDS5B] | 2.11 ± 0.34 | 2.7 ± 0.075 | – | –
RTIVEEVQDGKVISSREQVHQTTR [KRT17] | 4.69 ± 0.25 | 5.01 ± 0.38 | – | –
APGVDLSRILNEMRDQYEQMAEKN [KRT16] | 4.27 ± 0.35 | 4.42 ± 0.16 | – | –
QFRVVRCWKMLSPGFDSSVYSDLC [ADAMTSL2] | 2.5 ± 1 | 2.32 ± 0.45 | – | –
VEQGERALERRRRALQEEERAAAQ [ZBED3] | 5.5 ± 0.2 | 5.29 ± 0.38 | – | –
ILAIIAKEGDCAPEEKIWEELSVL [MAGEA6] | 2.44 ± 0.26 | 2.48 ± 0.43 | – | –
RSWFPSAPGSASSSKVSGVLKKLA [YJU2B] | 2.61 ± 0.27 | 2.5 ± 0.38 | – | –
RCRQSLEDSESLRIKEVEHMTRHL [LRRC45] | 3.42 ± 0.14 | 3.46 ± 0.17 | – | –
NCIHRDIKPENILITKQGIIKICD [CDKL4] | 2.51 ± 0.39 | 3.28 ± 0.24 | – | –
GSLPGPGQTSGAREPPQAVSIKEA [VENTX] | 5.01 ± 0.41 | 5.52 ± 0.2 | – | –
LEVPAGSRLNLTGLGYFSCHSHTV [CCDC3] | 2.57 ± 0.33 | 2.2 ± 0.25 | – | –

Sequence | protein stability index [1] | protein stability index [2] | protein stability index [3] | protein stability index [4]
ETSVGTYESHSTSELEDLTEPEQR [TPD52L3] | 5.69 ± 0.14 | 5.45 ± 0.28 | – | –
ALHLAARNGHLATVKLLVEEKADV [RIPK4] | 2.85 ± 0.17 | 3.06 ± 0.3 | – | –
ELLREGRASATTTITTAAATSVTV [ZBTB22] | 3.42 ± 0.21 | 3.48 ± 0.28 | – | –
DHNEAMKPEEPPQNLLREKIMKLP [PCMTD1] | 4.63 ± 0.32 | 4.66 ± 0.12 | – | –
NHGLVSVGESVEEAFYYIHNLVVA [ADD1] | 2.24 ± 0.31 | 2.1 ± 0.58 | – | –
PELLVGDTQYGSSVDIWAIGCVFA [CDKL4] | 2.14 ± 0.57 | 2.73 ± 0.98 | – | –
DVTGSVKSERRNLLEDDSDEEEDF [VAMP4] | 5.57 ± 0.14 | 5.66 ± 0.25 | – | –
QERPRPEPGRLGSSSPASVTTEQL [PXN] | 5.29 ± 0.3 | 5.12 ± 0.39 | – | –
LAIKAITSSAKVDMTFEEEAQLLQ [FKBP8] | 2.95 ± 0.19 | 3.29 ± 0.34 | – | –
LVTIARKASLWQFLSSEKQICGTH [TRIM43] | 2.06 ± 0.34 | 2.17 ± 0.45 | – | –
SRVNNASYCPHCGEESSKAKEVTI [EHMT1] | 3.39 ± 0.14 | 3.37 ± 0.32 | – | –
QVHAWQLYYSKKLLDSWFTSTQEK [JAGN1] | 2.23 ± 0.29 | 2.29 ± 0.29 | – | –
LEKWMQKNVEENLYSSSLGGGVAT [GLT8D2] | 3.44 ± 0.2 | 3.69 ± 0.26 | – | –
IHDLDLTLLNPRMIVDVTPYMNPS [CLCN6] | 2.29 ± 0.19 | 2.26 ± 0.25 | – | –
ERSVFSERTEESSAVQYFQFYGYL [CARM1] | 2.08 ± 0.1 | 2.23 ± 0.25 | – | –
RDNGHSNRDEHSSRGYRNHRSSRE [RBMY1A1] | 5.1 ± 0.074 | 5.24 ± 0.088 | – | –
ACLIVMFLPEKKDTGVFAVVNSHS [SLC22A15] | 3.22 ± 0.56 | 2.12 ± 0.19 | – | –
WEELLTMKVEAKSHLQWQESRLKR [ZSCAN9] | 3.65 ± 0.18 | 3.59 ± 0.37 | – | –
SWKESSMNIIELEIPDQNIDVEAL [GMCL1] | 4.26 ± 0.23 | 4.08 ± 0.29 | – | –
SYGGGSASSQHSEGSRSSGSNRSG [DVL3] | 5.23 ± 0.081 | 5.16 ± 0.29 | – | –
ENCLSASAAQTDPTTGYRRLLRFS [LOXL2] | 3.34 ± 0.36 | 3.35 ± 0.4 | – | –
MALTPVVVTLWYRAPEVLLQSTYA [CDK4] | 3.04 ± 0.41 | 3.06 ± 0.45 | – | –
SGAAASLNVDAAVQQWLQKGTPAS [CHIT1] | 4.12 ± 0.33 | 4.01 ± 0.35 | – | –

Sequence | protein stability index [1] | protein stability index [2] | protein stability index [3] | protein stability index [4]
IVETLCIIWFSFELVVRFFACPSK [KCNA1] | 3.11 ± 0.19 | 3.15 ± 0.32 | – | –
VDGPDLEMLTGQERVALANRKREC [FKBP8] | 4.96 ± 0.16 | 5.14 ± 0.2 | – | –
YQELMSLKLALDMEIATYRKLLES [KRT71] | 2.38 ± 0.32 | 2.16 ± 0.22 | – | –
LLQRELAQEDSLNKLALQYGCKVA [LYSMD4] | 2.21 ± 0.34 | 2.52 ± 0.57 | – | –
GYQHVDLQNFSSSWSDGMAFCALV [SMTNL2] | 2.16 ± 0.49 | 2.01 ± 0.15 | – | –
LRDGGGLTPLELLLRQLGRDAGAT [ANKRD9] | 2.79 ± 0.34 | 2.58 ± 0.27 | – | –
AEHNLVLFRKDVDDATLSRLELER [PRPH] | 4.45 ± 0.19 | 4.51 ± 0.16 | – | –
QECPPDGRSFREEQCVSFNSHVYN [ADAMTSL2] | 4.08 ± 0.11 | 3.91 ± 0.2 | – | –
NYQVFQKVTDHATTALLHYQLPQM [MED27] | 2.52 ± 0.21 | 2.25 ± 0.24 | – | –
NNWDKWMAKKHKKIRLRCQKGIPP [TBC1D10A] | 2.74 ± 0.24 | 3.1 ± 0.12 | – | –
MERTGGIGDSRPPSFHPHAGGGSQ [DVL3] | 4.5 ± 0.18 | 4.69 ± 0.16 | – | –
DTLQNDYFAIKQEVVTPDNMCMGR [ETS1] | 3.65 ± 0.31 | 4.05 ± 0.45 | – | –
EVDGLRGTNEALLRQLRELEEQFA [PRPH] | 4.35 ± 0.17 | 4.32 ± 0.26 | – | –
GSCSTEVEKETQEKMTILQTYFRQ [ATP6V1G1] | 2.5 ± 0.25 | 2.62 ± 0.3 | – | –
ESDYTYSSSYEQFNGELPNGRHKI [SRPK2] | 4.04 ± 0.41 | 3.97 ± 0.49 | – | –
EEKKPGELKRLVESRRQQILREFE [TRIM39] | 4.43 ± 0.55 | 4.59 ± 0.22 | – | –
LLPTKSLVALKCTCCYFKFIIEYY [FBXO34] | 2.8 ± 0.59 | 2.83 ± 0.88 | – | –
PTVPSAATSQPTPSQHSAHTSSQP [CCDC6] | 5.21 ± 0.13 | 5.22 ± 0.27 | – | –
GKKEIKPFKRFLRKKSKPKKCVKK [SMOC2] | 3.1 ± 0.25 | – | – | –
QSLNDRLASYLDRVRSLETENRRL [KRT18] | 3.65 ± 0.044 | 3.67 ± 0.23 | – | –
RALSDTTEELTVIKSSLKDEYQYS [SLC2A12] | 4.54 ± 0.22 | 4.68 ± 0.08 | – | –
IVRRRSRDVPESPQHAADTPKSGE [YJU2B] | 5.06 ± 0.25 | 5.21 ± 0.22 | – | –
TKVRKQEIIKVTEQLIEAISNGDF [CAMK2A] | 2.38 ± 0.32 | 2.66 ± 0.42 | – | –

Sequence | protein stability index [1] | protein stability index [2] | protein stability index [3] | protein stability index [4]
EGVPSVFNPPPSRPLQVNTADHRI [FAF2] | 4.421 ± 0.042 | 4.503 ± 0.037 | – | –
PTELWPQEAVPLGLGLEDADWTQG [TEX19] | 4.56 ± 0.22 | 4.59 ± 0.22 | – | –
QPASELLQDVRVNQSRCEMKTFVS [TRIM15] | 2.98 ± 0.48 | 3.25 ± 0.41 | – | –
FTAALEHCRENAHDKIRPISSIGQ [SPACA9] | 3.3 ± 0.088 | 3.41 ± 0.25 | – | –
HVTVVILFFVPCIFLYARPNSTFP [OR4A15] | 2.83 ± 0.9 | 2.77 ± 0.51 | – | –
HSVLQGFIPLFQKFRLTGFRKTD [TMEM40] | – | – | 2.69 ± 0.62 | 2.69 ± 0.43
RQIQEEEDEKQRLQNEVRQLTEKL [SSNA1] | 4.98 ± 0.19 | 5.04 ± 0.21 | – | –
LVTQQLPHLMPSNCGLEEKIANLG [S100A14] | 2.43 ± 0.68 | 3.05 ± 0.55 | – | –
GSKKKFDKCMVCGGDGSGCSKQSG [ADAMTS4] | 4.18 ± 0.4 | 4.02 ± 0.34 | – | –
VSRRTSEACMTHLHYKWIPVEDSH [DUSP5] | 3.04 ± 0.34 | 3.08 ± 0.21 | – | –
GLMTQSSLETHHYVDCGGNSTAI [TMEM106C] | – | – | 3.18 ± 0.074 | 3.6 ± 0.13
DTLGLGKTRRKTSARDASPTPSTD [NCK2] | 5.36 ± 0.25 | 5.15 ± 0.34 | – | –
RTLASGRLLSYRGERVAARGYWGD [DNAAF3] | 2.96 ± 0.17 | 3.08 ± 0.19 | – | –
AVIYLGYCFCGWIVLGPYHVKFRS [MCOLN1] | 3.08 ± 1.1 | 2.86 ± 0.52 | – | –
PSVIQEIHQESGKAPSTDDATWAA [C10orf62] | 4.29 ± 0.33 | 4.66 ± 0.34 | – | –
EQAPAPGEATAAPAPLCGGPSAEA [TBX6] | 5.5 ± 0.31 | 5.46 ± 0.25 | – | –
QHRKINPKNREYDRFYVINYLVRL [ZNF277] | 3.16 ± 1.1 | 2.29 ± 0.64 | – | –
DMKVNPIQGLASKWDYEKNEWKK [COX4I1] | – | – | 4.45 ± 0.27 | 4.72 ± 0.24
AKSRAEAALEEESRQRQSRMEKGE [SMARCE1] | 5.55 ± 0.22 | 5.38 ± 0.22 | – | –
HVQKLSQECLKQLAIKKQQHIDNI [TRIM14] | 3.81 ± 0.36 | 3.75 ± 0.12 | – | –
